Reference: article PMC3397946, “Identification and Characterization of the Cognate Anti-Sigma Factor and Specific Promoter Elements of a T. tengcongensis ECF Sigma Factor”
Substitutions are numbered along the chain they refer to. Names and notes keep the numbering of the source.

Legend:
Tt-RpoE1 [1] = target: T1, Tt-RpoE1 (Thermoanaerobacter tengcongensis MB4T, UniProt Q8RCT7 1-162); assay: EMSA; 5 uM protein; little effect; 50 mM Tris-HCl pH 8.0, 10 mM MgAc2, 30 mM NaCl, 1 mM DTT, 5% glycerol, 30 ug/ml BSA, 0.5 mM EDTA, 1 ug poly(dI-dC), 20 fmol probe in 20 ul, 25 C, 20 min; settings: protein: recombinant, tags: His (pET28a), label: 5'-32P top strand
T1 sequence: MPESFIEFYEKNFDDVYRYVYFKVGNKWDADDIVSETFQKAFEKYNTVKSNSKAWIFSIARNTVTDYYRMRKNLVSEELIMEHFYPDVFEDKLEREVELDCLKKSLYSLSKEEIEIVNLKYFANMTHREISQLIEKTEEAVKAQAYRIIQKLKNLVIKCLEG

Tt-TolB-C = target: T2, Tt-TolB-C (Thermoanaerobacter tengcongensis MB4T, UniProt Q8RCT8 62-645); assay: EMSA; 5 uM, alone; 50 mM Tris-HCl pH 8.0, 10 mM MgAc2, 30 mM NaCl, 1 mM DTT, 5% glycerol, 30 ug/ml BSA, 0.5 mM EDTA, 1 ug poly(dI-dC), 20 fmol probe in 20 ul, 25 C, 20 min; settings: protein: recombinant; tags: His (pET28a); label: 5'-32P top strand; fork: top 3' overhang 10 nt
T2 sequence: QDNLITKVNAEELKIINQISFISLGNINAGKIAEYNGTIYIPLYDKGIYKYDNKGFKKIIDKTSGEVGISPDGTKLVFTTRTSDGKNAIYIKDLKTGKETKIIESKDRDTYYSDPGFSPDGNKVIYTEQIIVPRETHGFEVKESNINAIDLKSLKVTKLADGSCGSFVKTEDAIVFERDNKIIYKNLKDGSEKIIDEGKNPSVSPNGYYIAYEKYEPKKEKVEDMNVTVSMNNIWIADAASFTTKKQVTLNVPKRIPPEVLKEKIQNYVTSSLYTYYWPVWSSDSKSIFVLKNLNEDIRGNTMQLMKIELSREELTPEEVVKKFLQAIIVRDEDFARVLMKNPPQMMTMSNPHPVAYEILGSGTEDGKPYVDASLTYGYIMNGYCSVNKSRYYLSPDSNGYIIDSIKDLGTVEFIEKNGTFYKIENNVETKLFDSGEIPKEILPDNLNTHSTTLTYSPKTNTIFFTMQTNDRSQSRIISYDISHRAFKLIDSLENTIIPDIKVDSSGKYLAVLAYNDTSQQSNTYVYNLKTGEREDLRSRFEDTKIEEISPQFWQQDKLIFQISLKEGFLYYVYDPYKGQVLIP

Tt-TolB = target: T3, Tt-TolB (Thermoanaerobacter tengcongensis MB4T, UniProt Q8RCT8 1-645); assay: as above; settings: protein: recombinant; tags: His (pET28a); label: 5'-32P top strand; fork: top 3' overhang 10 nt
T3 sequence: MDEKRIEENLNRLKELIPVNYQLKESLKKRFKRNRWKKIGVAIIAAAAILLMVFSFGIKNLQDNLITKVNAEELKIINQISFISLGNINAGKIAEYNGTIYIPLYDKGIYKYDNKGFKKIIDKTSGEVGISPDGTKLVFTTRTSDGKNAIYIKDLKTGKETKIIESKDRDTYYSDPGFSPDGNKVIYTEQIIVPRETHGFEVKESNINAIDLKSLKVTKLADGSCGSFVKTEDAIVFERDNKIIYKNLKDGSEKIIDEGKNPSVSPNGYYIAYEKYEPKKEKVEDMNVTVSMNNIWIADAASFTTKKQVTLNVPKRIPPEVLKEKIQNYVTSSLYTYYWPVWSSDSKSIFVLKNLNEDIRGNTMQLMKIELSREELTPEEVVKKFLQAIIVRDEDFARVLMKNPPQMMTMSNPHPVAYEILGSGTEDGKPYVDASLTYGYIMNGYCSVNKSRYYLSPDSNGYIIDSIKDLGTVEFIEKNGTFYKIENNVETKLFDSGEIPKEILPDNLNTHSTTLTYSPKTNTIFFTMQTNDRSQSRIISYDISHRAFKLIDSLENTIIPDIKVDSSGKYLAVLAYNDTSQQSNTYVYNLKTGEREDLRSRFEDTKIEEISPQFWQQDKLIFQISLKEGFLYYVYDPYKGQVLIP

Tt-RpoE1;Tt-TolB = target: T4, Tt-RpoE1;Tt-TolB (Thermoanaerobacter tengcongensis …, UniProt Q8RCT7;Q8RCT8 1-162;1-645, |); assay: EMSA; 5 uM each; supershifted complex; 50 mM Tris-HCl pH 8.0, 10 mM MgAc2, 30 mM NaCl, 1 mM DTT, 5% glycerol, 30 ug/ml BSA, 0.5 mM EDTA, 1 ug poly(dI-dC), 20 fmol probe in 20 ul, 25 C, 20 min; settings: protein: recombinant;recombinant; tags: His (pET28a);His (pET28a); label: 5'-32P top strand; fork: top 3' overhang 10 nt
T4 sequence 1: T1 sequence
T4 sequence 2: T3 sequence

Tt-RpoE1 [2] = target: T1, Tt-RpoE1; assay: EMSA; 5 uM protein; 50 mM Tris-HCl pH 8.0, 10 mM MgAc2, 30 mM NaCl, 1 mM DTT, 5% glycerol, 30 ug/ml BSA, 0.5 mM EDTA, 1 ug poly(dI-dC), 20 fmol probe in 20 ul, 25 C, 20 min; settings: protein: recombinant; tags: His (pET28a); label: 5'-32P top strand; fork: top 3' overhang 10 nt
Tt-RpoE1 [3] = target: T1, Tt-RpoE1; assay: EMSA; 5 uM protein; strongest; 50 mM Tris-HCl pH 8.0, 10 mM MgAc2, 30 mM NaCl, 1 mM DTT, 5% glycerol, 30 ug/ml BSA, 0.5 mM EDTA, 1 ug poly(dI-dC), 20 fmol probe in 20 ul, 25 C, 20 min; settings: protein: recombinant; tags: His (pET28a); label: 5'-32P top strand; fork: top 3' overhang 12 nt
Tt-RpoE1 [4] = target: T1, Tt-RpoE1; assay: EMSA; 5 uM protein; abolished; 50 mM Tris-HCl pH 8.0, 10 mM MgAc2, 30 mM NaCl, 1 mM DTT, 5% glycerol, 30 ug/ml BSA, 0.5 mM EDTA, 1 ug poly(dI-dC), 20 fmol probe in 20 ul, 25 C, 20 min; settings: protein: recombinant; tags: His (pET28a); label: 5'-32P top strand; fork: top 3' overhang 10 nt
Tt-RpoE1 [5] = target: T1, Tt-RpoE1; assay: EMSA; 5 uM protein; abolition; 50 mM Tris-HCl pH 8.0, 10 mM MgAc2, 30 mM NaCl, 1 mM DTT, 5% glycerol, 30 ug/ml BSA, 0.5 mM EDTA, 1 ug poly(dI-dC), 20 fmol probe in 20 ul, 25 C, 20 min; settings: protein: recombinant; tags: His (pET28a); label: 5'-32P top strand; fork: top 3' overhang 10 nt
Tt-RpoE1 Y67A = target: T5, Tt-RpoE1 Y67A (Thermoanaerobacter tengcongensis MB4T, UniProt Q8RCT7 1-162, Y67A); assay: EMSA; 5 uM protein; affinity remained; 50 mM Tris-HCl pH 8.0, 10 mM MgAc2, 30 mM NaCl, 1 mM DTT, 5% glycerol, 30 ug/ml BSA, 0.5 mM EDTA, 1 ug poly(dI-dC), 20 fmol probe in 20 ul, 25 C, 20 min; settings: protein: recombinant; tags: His (pET28a); label: 5'-32P top strand; fork: top 3' overhang 12 nt
T5 sequence: T1 sequence with Y67A

Tt-RpoE1 R69A = target: T6, Tt-RpoE1 R69A (Thermoanaerobacter tengcongensis MB4T, UniProt Q8RCT7 1-162, R69A); assay: as above; settings: protein: recombinant; tags: His (pET28a); label: 5'-32P top strand; fork: top 3' overhang 12 nt
T6 sequence: T1 sequence with R69A

Tt-RpoE1 [6] = target: T1, Tt-RpoE1; assay: EMSA; 5 uM protein; parental; 50 mM Tris-HCl pH 8.0, 10 mM MgAc2, 30 mM NaCl, 1 mM DTT, 5% glycerol, 30 ug/ml BSA, 0.5 mM EDTA, 1 ug poly(dI-dC), 20 fmol probe in 20 ul, 25 C, 20 min; settings: protein: recombinant; tags: His (pET28a); label: 5'-32P top strand; fork: top 3' overhang 12 nt
Tt-RpoE1 D66A = target: T7, Tt-RpoE1 D66A (Thermoanaerobacter tengcongensis MB4T, UniProt Q8RCT7 1-162, D66A); assay: EMSA; 5 uM protein; D66A cures -12G defect; 50 mM Tris-HCl pH 8.0, 10 mM MgAc2, 30 mM NaCl, 1 mM DTT, 5% glycerol, 30 ug/ml BSA, 0.5 mM EDTA, 1 ug poly(dI-dC), 20 fmol probe in 20 ul, 25 C, 20 min; settings: protein: recombinant; tags: His (pET28a); label: 5'-32P top strand; fork: top 3' overhang 12 nt
T7 sequence: T1 sequence with D66A

B1: D-5-BM4 (-9TATA-6 to CCCC) (dsDNA)
DNA 1: TGTTACCTTTTGTGTAGATTTTCGTCCCCCAAGGTG
DNA 2: CGAAAATCTACACAAAAGGTAACA
binding result (Tt-RpoE1 [1]; fork: top 3' overhang 12 nt): binds

B2: T+1/B-10 (dsDNA)
DNA 1: GGTATTGTTACCTTTTGTGTAGATTTTCGTCTATAAAGGTG
DNA 2: GACGAAAATCTACACAAAAGGTAACAATACC
binding result (Tt-TolB-C): no binding
binding result (Tt-TolB): no binding
binding result (Tt-RpoE1;Tt-TolB): binds
binding result (Tt-RpoE1 [2]): binds

B3: T+1/B-12 (dsDNA)
DNA 1: B2 DNA 1
DNA 2: CGAAAATCTACACAAAAGGTAACAATACC
binding result (Tt-RpoE1 [3]): binds

B4: D-5-6c (-30C to T) (dsDNA)
DNA 1: TGTTATCTTTTGTGTAGATTTTCGTCTATAAAGGTG
DNA 2: GACGAAAATCTACACAAAAGATAACA
binding result (Tt-RpoE1 [4]): no binding

B5: D-5-M5 (-32TACC-29 to GGTT) (dsDNA)
DNA 1: B4 DNA 1 with T4G, A5G, C7T
DNA 2: GACGAAAATCTACACAAAAAACCACA
binding result (Tt-RpoE1 [5]): no binding

B6: D-5-b5t/-12 (-9T to G) (dsDNA)
DNA 1: B4 DNA 1 with T6C, T27G
DNA 2: CGAAAATCTACACAAAAGGTAACA
binding result (Tt-RpoE1 [1]; fork: top 3' overhang 12 nt): binds

B7: D-5-7c (-29C to T) (dsDNA)
DNA 1: B4 DNA 1 with T6C, C7T
DNA 2: GACGAAAATCTACACAAAAAGTAACA
binding result (Tt-RpoE1 [1]; fork: top 3' overhang 10 nt): binds

B8: D-5-BM3 (-9TA-8 to CC) (dsDNA)
DNA 1: B1 DNA 1 with C29T, C30A
DNA 2: CGAAAATCTACACAAAAGGTAACA
binding result (Tt-RpoE1 [1]; fork: top 3' overhang 12 nt): binds

B9: D-5/-12 (dsDNA)
DNA 1: B4 DNA 1 with T6C
DNA 2: CGAAAATCTACACAAAAGGTAACA
binding result (Tt-RpoE1 Y67A): binds
binding result (Tt-RpoE1 R69A): binds
binding result (Tt-RpoE1 [6]): binds

B10: D-5-B1C (-13C to T) (dsDNA)
DNA 1: B4 DNA 1 with T6C, C23T
DNA 2: CAAAAATCTACACAAAAGGTAACA
binding result (Tt-RpoE1 [1]; fork: top 3' overhang 12 nt): binds

B11: D-5-b6a/-12 (-8A to G) (dsDNA)
DNA 1: B4 DNA 1 with T6C, A28G
DNA 2: CGAAAATCTACACAAAAGGTAACA
binding result (Tt-RpoE1 [1]; fork: top 3' overhang 12 nt): binds

B12: D-5-B2G (-12G to T) (dsDNA)
DNA 1: B4 DNA 1 with T6C, G24T
DNA 2: AGAAAATCTACACAAAAGGTAACA
binding result (Tt-RpoE1 D66A): binds

B13: D-5-b7t/-12 (-7T to G) (dsDNA)
DNA 1: B4 DNA 1 with T6C, T29G
DNA 2: CGAAAATCTACACAAAAGGTAACA
binding result (Tt-RpoE1 [1]; fork: top 3' overhang 12 nt): binds

B14: D-5/-10 (dsDNA)
DNA 1: B4 DNA 1 with T6C
DNA 2: GACGAAAATCTACACAAAAGGTAACA
binding result (Tt-RpoE1 [2]): binds

B15: D-5-b8a/-12 (-6A to G) (dsDNA)
DNA 1: B4 DNA 1 with T6C, A30G
DNA 2: CGAAAATCTACACAAAAGGTAACA
binding result (Tt-RpoE1 [1]; fork: top 3' overhang 12 nt): binds
